Results: patent US20240342284A1 (ARSENAL BIOSCIENCES, published 2024)
One block for each binder: values may come before it.

Key:
[1] = biological target: T1, human CA9 isoform with 91-96 deletion, expressed on HEK293T cells (human, UniProt Q16790 38-459); test: flow cytometry histograms on the 91-96del CA9 HEK293T line, secondary mouse anti human IgG2 stain
T1 construct: also called CA9-91-96del; 91-96del CA9

[2] = biological target: T2, human CA9 isoform with Q326R SNP, expressed on HEK293T cells (human, UniProt Q16790 38-459); test: flow cytometry histograms on the snpQ326R CA9 HEK293T line, secondary mouse anti human IgG2 stain
T2 construct: also called CA9-Q326R; Q326R CA9

[3] = biological target: T3, human Carbonic Anhydrase IX (CA9) expressed on cells (human, UniProt Q16790 38-459); test: flow cytometry histograms on the wt line 293T-LP81-CA9(CL572), secondary mouse anti human IgG2 stain
recombinant mouse PSMA = biological target: T4, recombinant mouse PSMA (mouse, UniProt O35409 45-752, limits assumed); test: BLI (Octet R8), antibody on anti-mouse capture biosensors, recombinant antigen as analyte
T4 construct: also called mouse homolog of PSMA
T4 sequence (O35409 45-752 limits assumed): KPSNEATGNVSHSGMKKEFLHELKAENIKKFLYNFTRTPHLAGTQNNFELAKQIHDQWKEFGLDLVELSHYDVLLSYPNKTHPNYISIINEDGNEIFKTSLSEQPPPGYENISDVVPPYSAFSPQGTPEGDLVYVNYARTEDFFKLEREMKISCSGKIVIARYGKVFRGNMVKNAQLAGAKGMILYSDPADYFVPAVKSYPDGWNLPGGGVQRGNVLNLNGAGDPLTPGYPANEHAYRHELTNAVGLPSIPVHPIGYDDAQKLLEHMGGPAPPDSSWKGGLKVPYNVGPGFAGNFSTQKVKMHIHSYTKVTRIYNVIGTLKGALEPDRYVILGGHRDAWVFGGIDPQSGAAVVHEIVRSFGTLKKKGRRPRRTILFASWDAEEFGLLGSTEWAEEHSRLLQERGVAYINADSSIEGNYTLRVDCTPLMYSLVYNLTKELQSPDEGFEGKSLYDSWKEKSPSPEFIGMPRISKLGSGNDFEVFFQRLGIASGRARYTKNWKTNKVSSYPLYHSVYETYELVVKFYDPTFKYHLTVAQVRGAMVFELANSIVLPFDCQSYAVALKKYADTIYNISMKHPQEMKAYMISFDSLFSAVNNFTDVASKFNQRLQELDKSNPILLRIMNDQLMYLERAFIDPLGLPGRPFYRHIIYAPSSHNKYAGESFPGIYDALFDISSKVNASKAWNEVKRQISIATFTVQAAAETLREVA
Protocol: (§1) The binding affinity of recombinant CA9 antibodies to human CA9 target antigen and cross-reactivity to mouse homologs was measured on the Octet R8. Briefly, recombinant antibody was loaded onto anti-mouse capture (AMC) Octet biosensors. Biosensors were then dipped into different concentrations of recombinant target antigen (analyte) solution, and the rate of protein-protein complex formation (association) measured. Protein-protein dissociation rates were measured when the biosensors were dipped into kinetic buffer alone. The Octet Analysis Studio 13.0 software calculated the response in equilibrium (Req) using the association and dissociation signal. The KD value and other kinetics parameters were determined by the values of Req for each analyte concentration (Table 1).
as §1, with “recombinant” for “recombinant CA9”, “PSMA” for “CA9”, “R8 instrument. […]” for “R8. Briefly, recombinant antibody was loaded onto anti-mouse capture (AMC) Octet biosensors.”, “The KD value and other kinetics parameters were determined by the values of Req for each analyte concentration (Table 1).” left out

[4] = biological target: T5, mouse PSMA expressed on HEK293T cells (mouse, UniProt O35409 1-752); test: flow cytometry histograms on HEK293T-mPSMA cells (panel B, left), axis PSMA 1 ab MFI
T5 construct: whole, on cells; also called HEK293T-mPSMA; mPSMA
T5 sequence (O35409 whole entry): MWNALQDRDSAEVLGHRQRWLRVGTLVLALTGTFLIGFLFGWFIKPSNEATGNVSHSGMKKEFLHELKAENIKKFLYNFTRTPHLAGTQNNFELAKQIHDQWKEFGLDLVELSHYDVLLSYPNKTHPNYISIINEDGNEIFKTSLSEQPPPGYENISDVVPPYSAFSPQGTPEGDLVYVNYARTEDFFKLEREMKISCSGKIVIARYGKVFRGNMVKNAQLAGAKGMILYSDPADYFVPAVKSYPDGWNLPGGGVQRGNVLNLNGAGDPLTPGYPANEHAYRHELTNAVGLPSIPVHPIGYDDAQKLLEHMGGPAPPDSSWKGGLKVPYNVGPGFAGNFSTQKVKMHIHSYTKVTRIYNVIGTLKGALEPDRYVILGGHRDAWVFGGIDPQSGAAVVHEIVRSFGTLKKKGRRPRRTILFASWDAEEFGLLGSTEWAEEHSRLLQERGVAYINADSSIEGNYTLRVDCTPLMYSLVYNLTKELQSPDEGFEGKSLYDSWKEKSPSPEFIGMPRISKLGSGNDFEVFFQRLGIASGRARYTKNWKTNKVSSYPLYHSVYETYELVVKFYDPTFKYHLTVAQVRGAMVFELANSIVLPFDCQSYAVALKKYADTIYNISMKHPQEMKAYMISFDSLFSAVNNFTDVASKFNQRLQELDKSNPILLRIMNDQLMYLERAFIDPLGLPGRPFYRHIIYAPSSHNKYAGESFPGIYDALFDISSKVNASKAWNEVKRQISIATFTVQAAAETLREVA
Protocol: Cross-reactivity of PSMA 1 to mouse PSMA was evaluated using flow cytometry. In brief, HEK293T cells expressing mouse PSMA (HEK293T-mPSMA) were stained for 30 min on ice with increasing concentrations of PSMA 1-mIgG2a. Target cells were also stained with positive control antibodies to confirm expression of mouse PSMA on the engineered HEK293T cells. Following primary staining, the cells were washed, stained with secondary antibody, and subsequently analyzed by flow cytometry. Data were analyzed using FlowJo.

recombinant human PSMA = biological target: T6, recombinant human PSMA (human, UniProt Q04609 44-750); test: BLI (Octet R8), antibody on anti-mouse capture biosensors, recombinant human PSMA as analyte
T6 construct: Soluble recombinant antigen used as analyte on the Octet
T6 sequence (Q04609 44-750 limits assumed): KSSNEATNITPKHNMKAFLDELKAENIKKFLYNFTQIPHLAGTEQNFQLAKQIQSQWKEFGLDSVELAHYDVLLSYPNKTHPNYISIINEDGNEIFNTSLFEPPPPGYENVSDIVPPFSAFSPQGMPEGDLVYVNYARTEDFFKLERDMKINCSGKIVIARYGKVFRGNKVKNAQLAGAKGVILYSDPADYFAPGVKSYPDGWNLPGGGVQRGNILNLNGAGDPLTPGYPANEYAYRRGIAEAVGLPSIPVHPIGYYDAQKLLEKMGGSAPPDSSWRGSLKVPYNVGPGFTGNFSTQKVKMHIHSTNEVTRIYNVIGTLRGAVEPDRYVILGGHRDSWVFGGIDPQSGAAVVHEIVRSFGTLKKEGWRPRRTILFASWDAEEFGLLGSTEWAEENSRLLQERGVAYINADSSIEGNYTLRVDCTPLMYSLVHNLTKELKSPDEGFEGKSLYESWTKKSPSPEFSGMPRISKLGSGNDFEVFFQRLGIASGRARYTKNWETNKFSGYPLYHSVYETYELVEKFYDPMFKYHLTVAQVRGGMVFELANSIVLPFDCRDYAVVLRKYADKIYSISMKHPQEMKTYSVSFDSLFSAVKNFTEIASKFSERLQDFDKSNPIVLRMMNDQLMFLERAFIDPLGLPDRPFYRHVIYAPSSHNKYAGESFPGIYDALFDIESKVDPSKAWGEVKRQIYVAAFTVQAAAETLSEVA
Protocol: as §1, with “recombinant” for “recombinant CA9”, “PSMA” for “CA9”, “R8 instrument.” for “R8.”, “2).” for “1).”

[5] = biological target: T7, human Prostate-Specific Membrane Antigen (PSMA) expressed on cells (human, UniProt Q04609 1-750); test: flow cytometry, 8-point serial dilution on HEK293T-PSMA cells, anti-mouse IgG2a-PE secondary, gMFI
T7 construct: also called FOLH1; HEK293T-PSMA
T7 sequence (Q04609 whole entry): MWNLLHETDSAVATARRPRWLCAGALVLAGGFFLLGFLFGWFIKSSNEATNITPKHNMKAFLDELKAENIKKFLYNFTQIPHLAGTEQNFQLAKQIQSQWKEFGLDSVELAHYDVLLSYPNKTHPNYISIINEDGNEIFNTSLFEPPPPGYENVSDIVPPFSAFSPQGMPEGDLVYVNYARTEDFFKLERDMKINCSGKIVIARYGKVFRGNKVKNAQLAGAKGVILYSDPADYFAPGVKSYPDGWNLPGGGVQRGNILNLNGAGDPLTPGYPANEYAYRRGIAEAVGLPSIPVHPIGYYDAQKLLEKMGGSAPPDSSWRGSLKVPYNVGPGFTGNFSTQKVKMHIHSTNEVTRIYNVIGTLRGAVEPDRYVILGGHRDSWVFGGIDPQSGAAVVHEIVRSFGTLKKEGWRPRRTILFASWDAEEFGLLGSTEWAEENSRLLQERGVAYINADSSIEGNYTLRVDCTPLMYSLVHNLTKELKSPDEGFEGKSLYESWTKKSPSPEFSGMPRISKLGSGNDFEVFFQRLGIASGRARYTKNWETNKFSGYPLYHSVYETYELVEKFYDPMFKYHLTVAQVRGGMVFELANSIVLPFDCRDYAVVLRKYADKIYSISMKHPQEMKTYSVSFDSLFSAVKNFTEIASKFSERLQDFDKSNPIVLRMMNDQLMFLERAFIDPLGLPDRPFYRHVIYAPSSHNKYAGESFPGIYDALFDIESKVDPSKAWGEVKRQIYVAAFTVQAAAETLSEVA
Protocol: (§2) PSMA expressing HEK293T cell lines were used to assess the binding of recombinant antibodies to cell surface expressed PSMA. Briefly, HEK293T parental and HEK293T-PSMA engineered cells were first blocked with human Fc blocker for 10 min at room temperature, stained for 30 min on ice with recombinant antibodies in an 8-point serial dilution, and washed 3 times with BD Stain Buffer. Subsequently, cells were stained for 30 min on ice with anti-mouse IgG2a-PE secondary antibody. Cell surface binding was measured on an Attune flow cytometer, with geometric mean fluorescence intensity (gMFI) data analyzed in FlowJo and plotted using GraphPad Prism. The dose-response curves and EC50 value were analyzed and obtained using the nonlinear fit model of (agonist) versus response (three parameters).
(§3) There was no binding to parental HEK293T cells.

recombinant mouse CA9 = biological target: T8, recombinant mouse CA9 (mouse, UniProt Q8VHB5 32-390, limits assumed); test: BLI (Octet R8), antibody on anti-mouse capture biosensors, recombinant antigen as analyte
T8 construct: also called mouse homolog of CA9
T8 sequence (Q8VHB5 32-390 limits assumed): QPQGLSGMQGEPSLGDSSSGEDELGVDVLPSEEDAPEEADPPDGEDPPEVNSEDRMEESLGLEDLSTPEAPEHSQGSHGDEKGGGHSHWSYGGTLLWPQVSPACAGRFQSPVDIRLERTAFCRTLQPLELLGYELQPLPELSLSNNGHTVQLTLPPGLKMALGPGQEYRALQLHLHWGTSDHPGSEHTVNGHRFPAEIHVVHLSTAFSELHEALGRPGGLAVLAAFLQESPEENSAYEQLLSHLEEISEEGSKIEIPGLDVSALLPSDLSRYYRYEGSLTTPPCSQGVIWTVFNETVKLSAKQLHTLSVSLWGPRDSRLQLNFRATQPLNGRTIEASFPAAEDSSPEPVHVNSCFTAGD
Protocol: as §1
as §1, with “recombinant” for “recombinant CA9”, “PSMA” for “CA9”, “R8 instrument. […]” for “R8. Briefly, recombinant antibody was loaded onto anti-mouse capture (AMC) Octet biosensors.”, “The KD value and other kinetics parameters were determined by the values of Req for each analyte concentration (Table 1).” left out

[6] = biological target: T9, mouse CA9 expressed on HEK293T cells (mouse, UniProt Q8VHB5 32-437); test: flow cytometry histograms on HEK293T-mCA9 cells (panel B, left), axis CA9 1 ab MFI
T9 construct: whole, on cells; also called HEK293T-mCA9; mCA9
T9 sequence (Q8VHB5 32-437): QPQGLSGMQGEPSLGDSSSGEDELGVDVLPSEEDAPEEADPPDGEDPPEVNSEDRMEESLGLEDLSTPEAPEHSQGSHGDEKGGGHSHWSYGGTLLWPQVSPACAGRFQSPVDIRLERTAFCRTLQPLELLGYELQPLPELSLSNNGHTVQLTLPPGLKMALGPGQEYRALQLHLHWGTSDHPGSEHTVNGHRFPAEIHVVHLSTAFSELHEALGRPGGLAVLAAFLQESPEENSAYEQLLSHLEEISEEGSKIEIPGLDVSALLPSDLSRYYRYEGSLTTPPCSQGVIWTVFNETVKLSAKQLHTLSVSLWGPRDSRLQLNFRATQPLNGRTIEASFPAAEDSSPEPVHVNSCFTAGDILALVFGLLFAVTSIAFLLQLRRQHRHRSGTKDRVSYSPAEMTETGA
Text: To assess cross-reactivity of CA9 1 to mouse CA9 and further confirm the binding kinetics to human CA9, HEK293T-mCA9 cells were stained with increasing concentrations of CA9 1-mIgG2a then analyzed by flow cytometry. Recombinant CA9 1-mIgG2a protein was titrated against parental and engineered HEK293T cell lines expressing mouse CA9. Target cells were also stained with positive control antibodies to confirm expression of mouse CA9 on the engineered HEK293T cells. Following primary staining, the cells were washed, stained with secondary antibody, and subsequently analyzed by flow cytometry. Data were analyzed using FlowJo. Target cells were also stained using an anti-mouse CA9 positive control antibody to confirm expression of mouse CA9 on the HEK293T-mCA9 cells.

recombinant human CA9 = recombinant human CA9 (human, UniProt Q16790 38-414); test: BLI (Octet R8), antibody on anti-mouse capture biosensors, recombinant human CA9 as analyte
Protocol: as §1

[7] = biological target: T3, human Carbonic Anhydrase IX (CA9) …; test: flow cytometry, 8-point serial dilution on HEK293T-CA9 cells, anti-mouse IgG2a-PE secondary, gMFI
Protocol: (§4) Binding of recombinant CA9 1-mIgG2a and CA9 2-mIgG2a to CA9 was assessed by cell binding dose curves on parental HEK293T cells and HEK293T-CA9 expressing cell lines. Briefly, HEK293T parental and HEK293T-CA9 engineered cells were first blocked with human Fc blocker for 10 min at room temperature, stained for 30 min on ice with recombinant antibodies in an 8-point serial dilution, and washed 3 times with BD Stain Buffer. Subsequently, cells were stained for 30 min on ice with anti-mouse IgG2a-PE secondary antibody. Cell surface binding was measured on an Attune flow cytometer, with geometric mean fluorescence intensity (gMFI) data analyzed in FlowJo and plotted using GraphPad Prism. The dose-response curves and EC50 value were analyzed and obtained using the nonlinear fit model of (agonist) versus response (three parameters).
as §3

[8] = biological target: T7, human Prostate-Specific Membrane …; test: flow cytometry dose curves on HEK293T-PSMA against parental cells (data not shown)
Protocol: as §2
Binding of PSMA 1-mIgG2a or PSMA 2-mIgG2a to PSMA was assessed by cell binding dose curves on parental HEK293T cells and HEK293T-PSMA expressing cell lines. […] (data not shown)

[9] = biological target: T3, human Carbonic Anhydrase IX (CA9) …; test: flow cytometry on HEK293T-CA9 against parental cells (data not shown)
Protocol: as §4

B1: CA9 1 scFv (scFv)
scFv: QVQLVQSGAEVKKPGASVKVSCKASGYTFTSYYMHWVRQAPGQGLEWMGIINPSRGSASYAQKFQGRVTMARDTSTSTVYMELSSLRSEDTAVYYCARDRNYYYYMDVWGKGTTVTVSSGGGGSGGGGSGGGGSEIVMTQSPATLSVSPGERATLSCRASQNISSNLAWYQQKPGQAPRLLIYGASTRATDIPARFSGSGSGTEFTLTISSLQSEDFAVYYCQQYITWYTFGQGTKLEIK
notes: Used to stain the CA9 isoform cell lines; It was detected with a secondary 'mouse anti human IgG2' stain
binding result [1]: binds | binding result [2]: binds | binding result [3]: binds

B2: PSMA 1-mIgG2a (antibody, V domains shown)
VH: QVQLVQSGPEVKKPGASVKVSCKASGYTFTSYGITWVRQAPGQGLEWMGWISEYNGNTNYAQKFQGRVTMTIDTSTTTAYMELRSLRSDDTAVYFCARGGILPYYFFYYMDVWGKGTTVTVSS
VL: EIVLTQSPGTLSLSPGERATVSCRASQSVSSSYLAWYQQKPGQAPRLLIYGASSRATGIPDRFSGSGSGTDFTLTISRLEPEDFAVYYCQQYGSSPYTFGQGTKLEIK
notes: Fully human VH and VL cloned into vectors with mouse IgG2a constant domains (chimeric, expressed in CHO); also called PSMA 1 antigen biding fragment
binding result (recombinant mouse PSMA): no binding | binding result [4]: no binding (tested: 30 µg/mL) | Kd (recombinant human PSMA): 300 pM | koff (recombinant human PSMA): 1.89e-05 s⁻¹ | kon (recombinant human PSMA): 63300 M⁻¹ s⁻¹ | EC50 [5]: 1860 pM

B4: PSMA 2-mIgG2a (antibody, V domains shown)
VH: QVQLVQSGAEVKKPGASVKVSCKASGYTFSSYGVSWVRQAPGQGLEWMGWISKYNGNTNYAQKFQGRVTMTTDTSTSTAYMELRSLRSDDTAVYFCARGGIHGDSYYFYYLDVWGKGTTVTVSS
VL: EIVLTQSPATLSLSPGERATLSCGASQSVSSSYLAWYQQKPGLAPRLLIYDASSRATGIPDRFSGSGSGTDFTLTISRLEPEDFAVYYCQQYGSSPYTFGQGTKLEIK
notes: Fully human VH and VL cloned into vectors with mouse IgG2a constant domains (chimeric, expressed in CHO)
binding result [8]: binds

Results, then the binder that gave them:

binding result (recombinant mouse CA9): no binding | binding result [6]: no binding (tested: 30 µg/mL) | Kd (recombinant human CA9): 150 pM | koff (recombinant human CA9): 4.9e-05 s⁻¹ | kon (recombinant human CA9): 325000 M⁻¹ s⁻¹ | EC50 [7]: 920 pM
B3: CA9 1-mIgG2a (antibody, V domains shown)
VH: QVQLVQSGAEVKKPGASVKVSCKASGYTFTSYYMHWVRQAPGQGLEWMGIINPSRGSASYAQKFQGRVTMARDTSTSTVYMELSSLRSEDTAVYYCARDRNYYYYMDVWGKGTTVTVSS
VL: EIVMTQSPATLSVSPGERATLSCRASQNISSNLAWYQQKPGQAPRLLIYGASTRATDIPARFSGSGSGTEFTLTISSLQSEDFAVYYCQQYITWYTFGQGTKLEIK
notes: Fully human VH and VL cloned into mammalian expression vectors with mouse IgG2a constant domains (chimeric antibody, expressed in CHO); also called CA9 1 antigen biding fragment

binding result [1]: binds | binding result [2]: binds | binding result [3]: binds
B5: CA9 2 scFv (as printed; CA9 2 is a VH-only single domain) (VHH)
VHH: EVQLVESGGGLVQPGGSLRLSCAASGFSFSDYSGMSWVRQAPGKGEELVSAISPGGGDTYYADSVKGRFTISRDNSKNTLYLQMNSLRAEDTAVYYCARRWWYYSNHSGDYDYFDYRGQGTLVTVSS
notes: It was detected with a secondary 'mouse anti human IgG2' stain

binding result [9]: binds
B6: CA9 2-mIgG2a (antibody, V domains shown)
VH: EVQLVESGGGLVQPGGSLRLSCAASGFSFSDYSGMSWVRQAPGKGEELVSAISPGGGDTYYADSVKGRFTISRDNSKNTLYLQMNSLRAEDTAVYYCARRWWYYSNHSGDYDYFDYRGQGTLVTVSS
